Experimental findings from article PMC5143422 (Cell Research, 2016) are described below.

Data set [1] deals with FabZ (β-hydroxyacyl-ACP dehydratase) from Helicobacter pylori (Helicobacter pylori) (UniProt O25928). The experiment in a line: SEC-MALS.
For data set [2] the target is unchanged. The experiment in a line: MST.
The data set “SEC-MALS” deals with the molecule itself. The experiment in a line: SEC-MALS.

“holo-acyl carrier protein (holo-ACP) from Helicobacter pylori (natural protein)” showed a stoichiometry N (holo-ACP per FabZ hexamer) in data set [1] of 3. In data set [2], this molecule gave a KD, first phase of the triphasic binding curve of 0.354 µM; a KD, second phase of the triphasic binding curve of 16.2 µM; a KD, third phase of the triphasic binding curve of 297 µM.

B1: FabZ (β-hydroxyacyl-ACP dehydratase) from Helicobacter pylori (enzyme)
chain: MEQSHQNLQSQFFIEHILQILPHRYPMLLVDRIIELQANKKIVAYKNITFNEDVFNGHFPNKPIFPGVLIVEGMAQTGGFLAFTSLWGFDPEIAKTKIVYFMTIDKVKFRIPVTPGDRLEYHLEVLKHKGMIWQVGGTAQVDGKVVAEAELKAMIAER
modifications: fluorescence dye NT-647 (amine-reaction) in the MST assay only
Take B1: the “stoichiometry N” value in the data set “SEC-MALS” was found to be 6.
